Experimental data as given in patent publication US5504197.

Molecular target: PDGF-A (PDGF dimer composed of two A chains)

3T3 cell mitogenicity assay (tritiated thymidine incorporation) in the presence and absence of PDGF: > 2 fold
Substance: Platelet Derived Growth Factor-Associated Protein (PAP), rat, recombinant, expressed in bacteria
